T1: human Siglec15-mouse Fc protein (human)
T1 construct: In house made
T1 chain: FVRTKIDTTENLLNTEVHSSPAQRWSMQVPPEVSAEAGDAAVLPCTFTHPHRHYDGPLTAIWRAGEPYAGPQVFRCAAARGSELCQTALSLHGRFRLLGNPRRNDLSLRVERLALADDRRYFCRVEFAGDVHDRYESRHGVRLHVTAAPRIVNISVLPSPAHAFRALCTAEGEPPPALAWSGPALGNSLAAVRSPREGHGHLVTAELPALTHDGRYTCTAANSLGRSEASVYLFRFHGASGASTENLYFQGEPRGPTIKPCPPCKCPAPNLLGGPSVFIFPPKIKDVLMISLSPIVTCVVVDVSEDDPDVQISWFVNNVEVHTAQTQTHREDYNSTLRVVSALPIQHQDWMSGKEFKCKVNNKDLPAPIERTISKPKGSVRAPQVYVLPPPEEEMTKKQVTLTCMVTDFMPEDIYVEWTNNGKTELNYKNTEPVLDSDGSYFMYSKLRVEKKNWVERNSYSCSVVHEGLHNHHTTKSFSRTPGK

T2: mouse Siglec15-his protein (mouse)
T2 construct: In house made
T2 chain: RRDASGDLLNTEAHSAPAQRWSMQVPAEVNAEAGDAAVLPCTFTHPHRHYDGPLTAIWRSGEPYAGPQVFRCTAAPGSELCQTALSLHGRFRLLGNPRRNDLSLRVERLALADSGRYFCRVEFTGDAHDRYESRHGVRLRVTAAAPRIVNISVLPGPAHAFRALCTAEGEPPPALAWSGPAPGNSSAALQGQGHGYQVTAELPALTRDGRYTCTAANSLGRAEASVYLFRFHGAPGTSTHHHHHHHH

B1: anti-Siglec15 benchmark (ch5G12) (antibody, human IgG1, kappa, V domains shown)
VH: QVQLQQPGAELVKPGASVKMSCKASGYTFTSYWITWVIQRPGQGLEWIGDIYCGSDTMHYNEKFKNKATLTVDTSSSTAYMQLSSLTSEDSAVYYCARWWDYGSSYDYFDYWGQGTTLTVSS
VL: DIKMTQSPSSMYASLGERVTITCKASQDINSYLSWFQQKPGKSPKTLIYRANRLVDGVPSRFSGSGSGQDYSLTISSLEYEDMGIYYCLQYDEFPYTFGGGTKLEIKR
notes: ch5G12 (US 20190202912A1); also called BM; Siglec15-ch5G9
B2: A1E10G7H9 (antibody, V domains shown)
VH: QVQLQESGPGLVKPSGTLSLTCAVSGGSISSSNWWHWVRQPPGKGLEWIGEIYHSGNTNYKPSLKSRVTISVDKSKNQFSLKLSSVTAADTAVYYCARDEGNGWSNAFDIWGQGTMVTVSS
VL: ENVLTQSPGTLSLSPGERVTLSCRASQSVSSSYLAWYQQKPGQAPRFLIYGASGGATGIPDRFSGSGSGTDFTLTISRLEPEDFAVYYCQQYGSSPITFGQGTRLEIK
notes: Fully human antibody from transgenic mouse hybridoma

How the values were obtained:
[1] = biological target: T1, human Siglec15-mouse Fc protein; experiment: cell based blocking FACS: human Siglec15-mouse Fc in solution, blocked ligand human LRRC4C on LRRC4C-3F12-1B9 cells
Experimental: The activities of the anti-Siglec15 antibodies to block binding of Siglec15 protein to cell surface LRRC4C were evaluated by Flow Cytometry (FACS), using in house made LRRC4C-3F12-1B9 cells. Briefly, HEK-293 cells (ATCC #CRL-1573) were transfected with pCMV-T-P plasmid constructs with the nucleotide sequence encoding human LRRC4C (amino acid residues Met1-Ile640 of uniprot #Q9HCJ2) inserted between EcoRI and XbaI, following the instruction of lipofectamine 3000 transfection reagent (Thermo Fisher). A stable cell named LRRC4C-3F12-1B9 was chosen for subsequent cell based ligand-blocking assay.
Briefly, the anti-Siglec15 antibodies of the disclosure or controls were diluted with human Siglec15-mouse Fc protein (prepared in-house with SEQ ID NO: 26, 8 μg/ml […] in FACS buffer), starting at 66.67 nM with a 5-fold serial dilution, and incubated at room temperature for 40 minutes. Then, LRRC4C-3F12-1B9 cells were harvested from cell culture flasks, washed twice and re-suspended in PBS containing 2% v/v Fetal Bovine Serum (FACS buffer). Then, 1×10⁵ cells per well in 96 well-plates were incubated in 100 μL of the antibody/Siglec15-mouse Fc mixtures for 40 minutes at 4° C. […] Cells were washed twice and re-suspended in FACS buffer. Fluorescence was measured using a Becton Dickinson FACS Canto II-HTS equipment. Data was analyzed using Graphpad Prism software and IC₅₀ values were reported.

[2] = biological target: T2, mouse Siglec15-his protein; experiment: indirect ELISA on coated mouse Siglec15-his
Experimental: The anti-Siglec15 antibodies' cross-reactions to cynomolgus or mouse Siglec15 proteins were measured. Briefly, 96-well micro plates were coated with 100 μl of 2 μg/ml cynomolgus Siglec15-his protein (in house made with SEQ ID NO: 21), or 2 μg/ml mouse Siglec15-his protein (in house made with SEQ ID NO: 22) in carbonate/bicarbonate buffer (pH 9.6) for 2 hours at 37° C. ELISA plates were washed once with wash buffer (PBS+0.05% v/v Tween-20, PBST) and then blocked with 200 μl/well blocking buffer (5% w/v non-fatty milk in PBST) overnight at 4° C. Plates were washed 4 times and incubated with 100 μl serially diluted anti-Siglec15 antibodies of the disclosure or controls (starting at 66.7 nM, 5-fold serial dilution in PBST with 2.5% w/v non-fatty milk) for 40 minutes at 37° C. […] The reaction was stopped 4 minutes later at room temperature with 50 μl 1M H₂SO₄, and the absorbance of each well was read on a microplate reader using dual wavelength mode with 450 nm for TMB and 630 nm as the reference wavelength, then the OD (450-630) values were plotted against antibody concentration. Data was analyzed using Graphpad Prism software and EC₅₀ values were reported.

[3] = biological target: T3, human Siglec15-Fc protein (human); experiment: competitive ELISA: biotin-labeled human Siglec15-Fc in solution, competitor coated benchmark; curve levels off at OD about 0.55, inhibition incomplete
T3 construct: In house made; also called recombinant human Siglec15 protein with human IgG1 Fc at the C-terminus
Experimental: The abilities of the anti-Siglec15 antibodies of the disclosure to block benchmark-human Siglec15 binding were measured in a competitive ELISA assay. Briefly, the benchmark was coated on 96-well micro plates at 2 μg/mL in PBS, 100 μl per well, and incubated for 2 hours at 37° C. Then plates were washed once with wash buffer, and blocked with 5% w/v non-fatty milk in PBST overnight at 4° C. The next day, the anti-Siglec15 antibodies of the disclosure or controls were diluted with biotin labeled human Siglec15-Fc protein (prepared in-house with SEQ ID NO: 19, 37 ng/ml in PBST with 2.5% w/v non-fatty milk), starting at 80 nM with a 4-fold serial dilution, and incubated at room temperature for 40 minutes. After plate washing 4 times, the antibody/Siglec15-Fc mixtures were added to benchmark coated plates, 100 μl per well. After incubation at 37° C. for 40 minutes, plates were washed 4 times again using wash buffer. Then the plates were added and incubated with 100 μl/well streptavidin conjugated HRP for 40 minutes at 37° C. […] Finally, TMB was added and the reaction was stopped using 1M H₂SO₄, and the absorbance of each well was read on a microplate reader using dual wavelength mode with 450 nm for TMB and 630 nm as the reference wavelength, then the OD (450-630) values were plotted against antibody concentration. Data was analyzed using Graphpad Prism software and IC₅₀ values were reported.

| Binder | IC50 [1] [nM] | EC50 [2] [nM] | IC50 [3] [nM] |
| --- | --- | --- | --- |
| B1 | 0.707 | 0.402 | – |
| B2 | – | – | ~0.0777 |

— patent US20230106715A1 (BIOSION, published 2023)
